Reference: patent publication US20120039802A1 (published 2012)
fluorescein = fluorescein label on the side chain of the C-terminal Lys

B1: 527-E08 peptide-displaying phage (SEQ ID NO: 491) (peptide)
peptide: AQWGAVDNDWYDWEMEQIWMFE
B2: 524-H02 peptide-displaying phage (SEQ ID NO: 492) (peptide)
peptide: AQVEDMATVHFKFNPATHEVIW
B3: 523-A04 peptide-displaying phage (SEQ ID NO: 493) (peptide)
peptide: AQRDYLFYWNDGSYQPWQVFVG
B4: 524-D07 peptide-displaying phage (SEQ ID NO: 494) (peptide)
peptide: AQQWMFQIHQSMAWPYEWIDSY
B5: 352-E04 peptide-displaying phage (SEQ ID NO: 019) (peptide)
peptide: AGTVYCSWESSECWWVGT
B6: 522-H03 peptide-displaying phage (SEQ ID NO: 495) (peptide)
peptide: AQGIAWQLEWSYMPQSPPSFDR
B7: 527-A10 peptide-displaying phage (SEQ ID NO: 496) (peptide)
peptide: AQGGRYPFYDTDWFKWEMYVL
B8: 325-H05 synthetic fluorescein-labeled peptide (SEQ ID NO: 048) (peptide)
peptide: Ac-AGSIQCKGPPWFSCAMYGTGGGK(fluorescein)-NH2
modifications: cysteine pairing not given here
B9: 336-G04 synthetic fluorescein-labeled peptide (SEQ ID NO: 051) (peptide)
peptide: Ac-AGWFQCKGPPSFECERHGTGGGK(fluorescein)-NH2
modifications: cysteine pairing not given here
B10: 334-G06 synthetic fluorescein-labeled peptide (SEQ ID NO: 052) (peptide)
peptide: Ac-AGWTHCIGPPTFECIPMGTGGGK(fluorescein)-NH2
modifications: cysteine pairing not given here
B11: 330-B07 synthetic fluorescein-labeled peptide (SEQ ID NO: 053) (peptide)
peptide: Ac-AGSFACKGPPTFACVEFGTGGGK(fluorescein)-NH2
modifications: cysteine pairing not given here
B12: 548-F06 synthetic fluorescein-labeled peptide (SEQ ID NO: 056) (peptide)
peptide: Ac-AGWISCAGPPTFACWPGGTGGGK(fluorescein)-NH2
modifications: cysteine pairing not given here
B13: 323-A11 synthetic fluorescein-labeled peptide (SEQ ID NO: 059) (peptide)
peptide: Ac-AGYTSCVGPPSFECTPYGTGGGK(fluorescein)-NH2
modifications: cysteine pairing not given here
B14: 329-D02 synthetic fluorescein-labeled peptide (SEQ ID NO: 061) (peptide)
peptide: Ac-AGHAWCSGPPRFECWPPGTGGGK(fluorescein)-NH2
modifications: cysteine pairing not given here
B15: 334-C08 synthetic fluorescein-labeled peptide (SEQ ID NO: 067) (peptide)
peptide: Ac-AGGWECTGPPWFQCGYYGTGGGK(fluorescein)-NH2
modifications: cysteine pairing not given here
B16: 333-C05 synthetic fluorescein-labeled peptide (SEQ ID NO: 068) (peptide)
peptide: Ac-AGDIVCTGHPYFECWSWGTGGGK(fluorescein)-NH2
modifications: cysteine pairing not given here
B17: 330-G09 synthetic fluorescein-labeled peptide (SEQ ID NO: 071) (peptide)
peptide: Ac-AGHWICVGPPTFSCQWHGTGGGK(fluorescein)-NH2
modifications: cysteine pairing not given here
B18: 331-F01 synthetic fluorescein-labeled peptide (SEQ ID NO: 072) (peptide)
peptide: Ac-AGEWWCHGPPEFLCYWTGTGGGK(fluorescein)-NH2
modifications: cysteine pairing not given here
B19: 335-D11 synthetic fluorescein-labeled peptide (SEQ ID NO: 074) (peptide)
peptide: Ac-AGSIQCVGPPSFECTPYGTGGGK(fluorescein)-NH2
modifications: cysteine pairing not given here
B20: 331-G06 synthetic fluorescein-labeled peptide (SEQ ID NO: 078) (peptide)
peptide: Ac-AGNWICTGPPSFGCWYHGTGGGK(fluorescein)-NH2
modifications: cysteine pairing not given here
B21: 546-G02 synthetic fluorescein-labeled peptide (SEQ ID NO: 390) (peptide)
peptide: Ac-GDYDYCDFDLETYIPECHSYDPGGGK(fluorescein)-NH2
modifications: cysteine pairing not given here
B22: 333-C03 synthetic fluorescein-labeled peptide (SEQ ID NO: 391) (peptide)
peptide: Ac-GDDFHCEFIDDYQSEICYFNDPGGGK(fluorescein)-NH2
modifications: cysteine pairing not given here
B23: 525-A07 synthetic fluorescein-labeled peptide (SEQ ID NO: 449) (peptide)
peptide: Ac-AQQASRFTFTDGDSYWWFEDFGGGK(fluorescein)-NH2
B24: 528-F05 synthetic fluorescein-labeled peptide (SEQ ID NO: 450) (peptide)
peptide: Ac-AQIQGIQKTEQGEFYWFNWFPAGGGK(fluorescein)-NH2
B25: 524-E09 synthetic fluorescein-labeled peptide (SEQ ID NO: 451) (peptide)
peptide: Ac-AQREVEEPYWYLDFLSSWRMHEGGGK(fluorescein)-NH2
B26: 96-H12 synthetic fluorescein-labeled peptide (SEQ ID NO: 452) (peptide)
peptide: Ac-AQRPEAHYKLAMSYPIIPRTKTGGGK(fluorescein)-NH2
B27: 118-A08 synthetic fluorescein-labeled peptide (SEQ ID NO: 453) (peptide)
peptide: Ac-AQRWSSPGMSQSFVLEWKWNDNGGGK(fluorescein)-NH2
B28: 94-E08 synthetic fluorescein-labeled peptide (SEQ ID NO: 454) (peptide)
peptide: Ac-AQYDTWVFQFIHEVPGELVAMQGGGK(fluorescein)-NH2
B29: 95-A11 synthetic fluorescein-labeled peptide (SEQ ID NO: 456) (peptide)
peptide: Ac-AQVGSPMLPSWFSFEANWSSGGGK(fluorescein)-NH2
B30: 94-F07 synthetic fluorescein-labeled peptide (SEQ ID NO: 458) (peptide)
peptide: Ac-AQPYYELQDADMLLVVALLSTGGGGK(fluorescein)-NH2
B31: 376-E05 peptide-displaying phage (SEQ ID NO: 020) (peptide)
peptide: AGVWICRVWDDECFFQGT
B32: 103-G08 synthetic fluorescein-labeled peptide (SEQ ID NO: 459) (peptide)
peptide: Ac-AQVGTAEAIMFSDVEDTGVHKFGGGK(fluorescein)-NH2
B33: 104-C09 synthetic fluorescein-labeled peptide (SEQ ID NO: 461) (peptide)
peptide: Ac-AQDLKPWTAGWEPPWLWTDRGPGGGK(fluorescein)-NH2
B34: 482-A12 peptide-displaying phage (SEQ ID NO: 021) (peptide)
peptide: AGDHYCWEEWWFCWDSGT
B35: 423-C11 peptide-displaying phage (SEQ ID NO: 022) (peptide)
peptide: AGVLQCIGFEWFCDIWGT
B36: 499-C09 peptide-displaying phage (SEQ ID NO: 023) (peptide)
peptide: AGVIVCNLSMMYCLYPGT
B37: 457-A09 peptide-displaying phage (SEQ ID NO: 024) (peptide)
peptide: AGYPECKDNYHWCEWKGT

Tests used:
[1] = molecular target: T1, cMet-Fc fusion protein (extracellular domain of the cMet receptor expressed as an Fc-fusion protein) (human, UniProt P08581 25-932); assay: phage ELISA, cMet-Fc vs TRAIL-Fc
T1 construct: extracellular domain; also called soluble cMet-Fc-fusion protein; soluble cMet receptor; not shown: Fc part
Procedure, shortened: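 Specificity check: phage displaying peptides incubated 2 h at room temperature on wells coated with 0.5 μg/mL cMet-Fc versus TRAIL-Fc, after blocking with 3% BSA/PBST. HRP-anti-M13 antibody detected binding phage.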

[2] = molecular target: T2, human cMet expressed on 3T3 cells (human, UniProt P08581 25-1390); assay: whole cell phage ELISA, 3T3 human cMet vs 3T3
T2 construct: whole, on cells; cells fixed with glutaraldehyde; also called cell surface-expressed human cMet; 3T3 cells that over-express human cMet
Procedure, shortened: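 Bound phage was detected with an HRP-conjugated anti-M13 antibody after PBST washes. The cells were cMet-over-expressing 3T3, read against plain 3T3.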

[3] = molecular target: T1, cMet-Fc fusion protein (extracellular …); assay: phage ELISA on cMet-Fc, competitor HGF 100 ng/mL
Procedure, shortened: (§1)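 Plates coated with 0.5 μg/mL cMet-Fc, with TRAIL-Fc as background, then blocked with 3% BSA. Bound phage detected with HRP anti-M13 antibody.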

[4] = molecular target: T1, cMet-Fc fusion protein (extracellular …); assay: phage ELISA on cMet-Fc, competitor HGF 500 ng/mL
Procedure, shortened: as §1

[5] = molecular target: T1, cMet-Fc fusion protein (extracellular …); assay: fluorescence polarization, 20 nM fluorescein peptide, cMet-Fc varied
Procedure: Fluorescence anisotropy measurements were performed in 384-well microplates in a volume of 10 μL in binding buffer (PBS, 0.01% Tween-20, pH 7.5) using a Tecan Polarion fluorescence polarization plate reader ([…]). […] Binding mixtures were equilibrated for 10 minutes in the microplate at 30 C before measurement. The observed change in anisotropy was fit to the equation below via nonlinear regression to obtain the apparent KD. This equation (1) assumes that the synthetic peptide and cMet form a reversible complex in solution with 1:1 stoichiometry.

T2 sequence (P08581 25-1390): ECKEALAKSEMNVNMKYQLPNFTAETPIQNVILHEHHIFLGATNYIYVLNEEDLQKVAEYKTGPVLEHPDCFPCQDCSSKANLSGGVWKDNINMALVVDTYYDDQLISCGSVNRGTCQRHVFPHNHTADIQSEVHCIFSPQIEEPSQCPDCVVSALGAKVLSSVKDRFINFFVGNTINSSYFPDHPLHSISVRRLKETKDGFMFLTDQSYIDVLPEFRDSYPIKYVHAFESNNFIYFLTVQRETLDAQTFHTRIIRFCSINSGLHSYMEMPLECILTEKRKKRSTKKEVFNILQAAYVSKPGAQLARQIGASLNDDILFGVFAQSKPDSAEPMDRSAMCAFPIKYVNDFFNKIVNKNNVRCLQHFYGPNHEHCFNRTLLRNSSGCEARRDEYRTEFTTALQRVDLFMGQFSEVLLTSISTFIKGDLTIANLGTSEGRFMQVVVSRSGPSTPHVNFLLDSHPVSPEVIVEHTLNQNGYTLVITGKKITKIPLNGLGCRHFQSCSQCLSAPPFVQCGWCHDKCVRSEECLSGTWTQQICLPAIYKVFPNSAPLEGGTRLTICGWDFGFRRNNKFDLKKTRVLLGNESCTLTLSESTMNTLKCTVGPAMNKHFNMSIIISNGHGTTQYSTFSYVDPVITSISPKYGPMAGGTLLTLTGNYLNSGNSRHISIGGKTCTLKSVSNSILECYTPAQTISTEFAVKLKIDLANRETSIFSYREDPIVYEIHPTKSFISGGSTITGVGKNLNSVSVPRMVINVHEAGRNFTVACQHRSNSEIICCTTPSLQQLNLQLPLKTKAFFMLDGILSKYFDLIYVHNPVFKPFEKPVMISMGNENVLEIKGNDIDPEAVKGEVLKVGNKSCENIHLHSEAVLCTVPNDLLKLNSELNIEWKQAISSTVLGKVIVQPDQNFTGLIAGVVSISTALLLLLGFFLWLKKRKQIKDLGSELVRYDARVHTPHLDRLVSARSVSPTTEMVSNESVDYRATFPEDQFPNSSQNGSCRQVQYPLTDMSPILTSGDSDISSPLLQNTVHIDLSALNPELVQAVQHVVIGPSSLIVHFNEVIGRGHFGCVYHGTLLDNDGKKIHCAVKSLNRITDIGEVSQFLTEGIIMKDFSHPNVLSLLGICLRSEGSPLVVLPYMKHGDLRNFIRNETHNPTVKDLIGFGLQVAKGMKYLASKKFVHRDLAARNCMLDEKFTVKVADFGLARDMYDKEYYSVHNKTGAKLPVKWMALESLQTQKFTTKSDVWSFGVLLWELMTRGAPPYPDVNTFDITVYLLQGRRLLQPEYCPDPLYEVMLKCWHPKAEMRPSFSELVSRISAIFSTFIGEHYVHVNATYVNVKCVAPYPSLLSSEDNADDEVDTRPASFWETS
T1 sequence (P08581 25-932): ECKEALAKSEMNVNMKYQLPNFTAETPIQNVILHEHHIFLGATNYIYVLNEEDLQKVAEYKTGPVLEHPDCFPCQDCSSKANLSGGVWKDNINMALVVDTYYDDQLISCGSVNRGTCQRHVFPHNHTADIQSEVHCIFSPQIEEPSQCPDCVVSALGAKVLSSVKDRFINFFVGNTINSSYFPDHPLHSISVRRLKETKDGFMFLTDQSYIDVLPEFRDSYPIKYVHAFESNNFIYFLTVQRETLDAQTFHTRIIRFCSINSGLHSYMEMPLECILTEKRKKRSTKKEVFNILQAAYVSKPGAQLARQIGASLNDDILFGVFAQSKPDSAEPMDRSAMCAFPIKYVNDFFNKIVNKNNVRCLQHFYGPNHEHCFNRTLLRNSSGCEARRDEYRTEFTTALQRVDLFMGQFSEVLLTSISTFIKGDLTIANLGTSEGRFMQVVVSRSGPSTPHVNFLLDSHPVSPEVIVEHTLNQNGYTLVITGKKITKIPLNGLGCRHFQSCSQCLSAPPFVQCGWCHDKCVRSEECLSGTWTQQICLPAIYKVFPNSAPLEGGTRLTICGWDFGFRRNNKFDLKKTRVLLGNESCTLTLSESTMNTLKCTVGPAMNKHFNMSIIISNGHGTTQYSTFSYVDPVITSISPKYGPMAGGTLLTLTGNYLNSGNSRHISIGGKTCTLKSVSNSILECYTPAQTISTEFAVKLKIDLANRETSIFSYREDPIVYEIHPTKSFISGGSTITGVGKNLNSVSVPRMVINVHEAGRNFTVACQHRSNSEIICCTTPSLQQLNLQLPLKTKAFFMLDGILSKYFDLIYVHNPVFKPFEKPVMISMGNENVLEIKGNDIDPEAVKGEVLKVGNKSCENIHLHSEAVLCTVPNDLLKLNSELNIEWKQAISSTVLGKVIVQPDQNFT

Binder	Protein ELISA (fold over background) [1]	WC ELISA (fold over background) [2]	% of binding in the absence of HGF [3]	% of binding in the absence of HGF [4]	Kd [5]
B1	3.2 fold	1.23 fold	98%	95%	–
B2	3.2 fold	1.53 fold	26%	25%	–
B3	5.5 fold	1.3 fold	133%	143%	–
B4	3.9 fold	1.23 fold	105%	104%	–
B5	3.9 fold	1.37 fold	88%	74%	–
B6	4.5 fold	1.17 fold	107%	94%	–
B7	3.8 fold	1.3 fold	84%	78%	–
B8	–	–	–	–	3.5 µM
B9	–	–	–	–	3.2 µM
B10	–	–	–	–	2.7 µM
B11	–	–	–	–	2.9 µM
B12	–	–	–	–	2.7 µM
B13	–	–	–	–	4.3 µM
B14	–	–	–	–	5.2 µM
B15	–	–	–	–	1.65 µM
B16	–	–	–	–	2.8 µM
B17	–	–	–	–	1.85 µM
B18	–	–	–	–	0.98 µM
B19	–	–	–	–	3.3 µM

Binder	Protein ELISA (fold over background) [1]	WC ELISA (fold over background) [2]	% of binding in the absence of HGF [3]	% of binding in the absence of HGF [4]	Kd [5]
B20	–	–	–	–	2.9 µM
B21	–	–	–	–	1.5 µM
B22	–	–	–	–	1.8 µM
B23	–	–	–	–	6.9 µM
B24	–	–	–	–	2.7 µM
B25	–	–	–	–	2 µM
B26	–	–	–	–	> 2 µM
B27	–	–	–	–	> 2 µM
B28	–	–	–	–	0.93 µM
B29	–	–	–	–	2.3 µM
B30	–	–	–	–	3.75 µM
B31	3.7 fold	1.37 fold	122%	121%	–
B32	–	–	–	–	> 2 µM
B33	–	–	–	–	> 2 µM
B34	3.5 fold	1.37 fold	98%	79%	–
B35	3.4 fold	1.4 fold	132%	75%	–
B36	3.2 fold	1.33 fold	91%	70%	–
B37	14.5 fold	1.3 fold	27%	67%	–
